The text below walks through data of PMC4072508, “Genome-Wide Prediction and Validation of Peptides That Bind Human Prosurvival Bcl-2 Proteins” (PLoS Computational Biology, 2014).

Holding throughout (experiment): peptide SPOT array, c-Myc-tagged receptor at 1 uM or 100 nM, anti-c-Myc-Cy3
The target of one experiment is Bcl-2, P10415.
The next experiment concerns the target T1, Bcl-w, Q92843.
T1 chain: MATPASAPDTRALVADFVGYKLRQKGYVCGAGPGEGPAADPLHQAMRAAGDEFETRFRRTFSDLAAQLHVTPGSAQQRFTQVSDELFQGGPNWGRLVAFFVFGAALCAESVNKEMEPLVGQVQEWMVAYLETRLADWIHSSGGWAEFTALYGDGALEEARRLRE

Another experiment concerns the target Bcl-xL, Q07817.
The target of another experiment is T2, Bfl-1, Q16548.
T2 chain: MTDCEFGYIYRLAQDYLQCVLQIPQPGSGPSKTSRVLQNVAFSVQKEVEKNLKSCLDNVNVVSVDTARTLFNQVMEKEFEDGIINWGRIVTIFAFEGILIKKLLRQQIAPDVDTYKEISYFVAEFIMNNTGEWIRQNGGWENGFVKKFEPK

For the next experiment, the target named is T3, Mcl-1, Q07820.
T3 chain: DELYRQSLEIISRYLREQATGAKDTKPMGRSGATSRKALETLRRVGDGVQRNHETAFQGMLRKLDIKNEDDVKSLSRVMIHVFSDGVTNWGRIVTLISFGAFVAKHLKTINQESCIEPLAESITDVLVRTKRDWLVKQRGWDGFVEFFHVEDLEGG

Sequence of Bcl-2, P10415 (P10415 1-217): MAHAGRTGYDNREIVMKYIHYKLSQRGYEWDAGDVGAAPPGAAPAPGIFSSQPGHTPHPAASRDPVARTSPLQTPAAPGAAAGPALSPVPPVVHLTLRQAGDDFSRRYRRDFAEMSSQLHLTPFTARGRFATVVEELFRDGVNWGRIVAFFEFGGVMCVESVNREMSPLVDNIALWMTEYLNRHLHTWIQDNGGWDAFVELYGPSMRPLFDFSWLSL
Sequence of Bcl-xL, Q07817 (Q07817 1-209): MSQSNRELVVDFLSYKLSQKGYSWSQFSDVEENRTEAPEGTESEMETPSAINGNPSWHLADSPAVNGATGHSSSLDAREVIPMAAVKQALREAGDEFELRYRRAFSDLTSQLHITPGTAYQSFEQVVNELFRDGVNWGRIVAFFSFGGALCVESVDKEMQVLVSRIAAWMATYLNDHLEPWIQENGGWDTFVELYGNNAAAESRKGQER

B1: PSMC1 (peptide)
chain: LGDGPKLVRELFRVAEEHAPSIVFID
As for B1, the SPOT signal as a fraction of Bim BH3's signal on the same receptor and array in the experiment with Bcl-2, P10415 turned out to be 0.01; with Bcl-w, Q92843, 0.02; in the experiment with Bcl-xL, Q07817 it was 0.04; with Bfl-1, Q16548, 0.03; in the experiment with Mcl-1, Q07820 it was 0.04.

B2: MTA3 (peptide)
chain: FYRRRDISNTLIMLADKHAKEIEEES
On to B2, for which the SPOT signal as a fraction of Bim BH3's signal on the same receptor and array with Bcl-2, P10415 was found to be 0.03; with Bcl-w, Q92843, 0.09; with Bcl-xL, Q07817, 0.15; with Bfl-1, Q16548, 0.08; in the experiment with Mcl-1, Q07820, 0.07.

B3: CLU (peptide)
chain: CSTNNPSQAKLRRELDESLQVAERLT
Take B3: the SPOT signal as a fraction of Bim BH3's signal on the same receptor and array with Bcl-2, P10415 was found to be 0.01; with Bcl-w, Q92843, 0.02; with Bcl-xL, Q07817, 0.03; with Bfl-1, Q16548 it was 0.02; with Mcl-1, Q07820 it was 0.02.

B4: USP5 (peptide)
chain: MVLDPSLAEHLSHFGIDMLKMQKTDK
As to B4, the SPOT signal as a fraction of Bim BH3's signal on the same receptor and array in the experiment with Bcl-2, P10415 came out at 0.02; with Bcl-w, Q92843 it was 0.03; in the experiment with Bcl-xL, Q07817 it was 0.07; with Bfl-1, Q16548, 0.07; in the experiment with Mcl-1, Q07820 it was 0.04.

B5: NRN1L (peptide)
chain: DTIYQGFAECLIRLGDSMGRGGELET
Take B5: the SPOT signal as a fraction of Bim BH3's signal on the same receptor and array with Bcl-2, P10415 turned out to be 0.01; in the experiment with Bcl-w, Q92843, 0.03; with Bcl-xL, Q07817, 0.035; with Bfl-1, Q16548, 0.02; with Mcl-1, Q07820, 0.17.

B6: C8orf37 (peptide)
chain: TNISWRACDHLRCIACDFLVVSYDDY
Take B6: the SPOT signal as a fraction of Bim BH3's signal on the same receptor and array is 0.01 in the experiment with Bcl-2, P10415; 0.15 in the experiment with Bcl-w, Q92843; 0.08 with Bcl-xL, Q07817; 0.02 in the experiment with Bfl-1, Q16548; 0.08 with Mcl-1, Q07820.

B7: INADL (peptide)
chain: GFANHDVVEVLRNAGQVVHLTLVRRK
As to B7, the SPOT signal as a fraction of Bim BH3's signal on the same receptor and array is 0.12 with Bcl-2, P10415; 0.31 in the experiment with Bcl-w, Q92843; 0.33 in the experiment with Bcl-xL, Q07817; 0.38 in the experiment with Bfl-1, Q16548; 0.34 with Mcl-1, Q07820.

B8: NAE1 (peptide)
chain: AAVGNHVAKLLQSIGQAPESISEKEL
Consider B8, for which the SPOT signal as a fraction of Bim BH3's signal on the same receptor and array with Bcl-2, P10415 came out at 0.01; in the experiment with Bcl-w, Q92843, 0.02; with Bcl-xL, Q07817, 0.03; with Bfl-1, Q16548 it was 0.02; with Mcl-1, Q07820 it was 0.02.

B9: DMD (peptide)
chain: EERAQNVTRLLRKQAEEVNTEWEKLN
In the case of B9, the SPOT signal as a fraction of Bim BH3's signal on the same receptor and array with Bcl-2, P10415 turned out to be 0.01; with Bcl-w, Q92843 it was 0.04; in the experiment with Bcl-xL, Q07817, 0.04; with Bfl-1, Q16548, 0.04; with Mcl-1, Q07820, 0.02.

B10: PXT1 (peptide)
chain: EEIIHKLAMQDRHIGDNIDHRMVRED
For the molecule B10, the SPOT signal as a fraction of Bim BH3's signal on the same receptor and array with Bcl-2, P10415 is 0.01; in the experiment with Bcl-w, Q92843, 0.02; with Bcl-xL, Q07817, 0.02; with Bfl-1, Q16548, 0.02; with Mcl-1, Q07820 it was 0.03.

B11: MOV10L1 (peptide)
chain: FSSDAVTSRVLLNVGQEVIAVVEENK
On to B11, for which the SPOT signal as a fraction of Bim BH3's signal on the same receptor and array was determined as 0.01 in the experiment with Bcl-2, P10415; 0.02 in the experiment with Bcl-w, Q92843; 0.03 with Bcl-xL, Q07817; 0.02 with Bfl-1, Q16548; 0.02 in the experiment with Mcl-1, Q07820.

B12: USP36 (peptide)
chain: AIKPVSFIRDLKKIARHFRFGNQEDA
Consider B12, for which the SPOT signal as a fraction of Bim BH3's signal on the same receptor and array with Bcl-2, P10415 is 0.19; in the experiment with Bcl-w, Q92843 it was 0.75; with Bcl-xL, Q07817 it was 0.61; in the experiment with Bfl-1, Q16548, 0.65; in the experiment with Mcl-1, Q07820, 0.39.

B13: ATP6AP2 (peptide)
chain: RDASKILVDALQKFADDMYSLYGGNA
Turning to B13, the SPOT signal as a fraction of Bim BH3's signal on the same receptor and array was determined as 0.01 with Bcl-2, P10415; 0.05 with Bcl-w, Q92843; 0.03 with Bcl-xL, Q07817; 0.02 in the experiment with Bfl-1, Q16548; 0.02 with Mcl-1, Q07820.

B14: DMD (peptide)
chain: IGQRQTVVRTLNATGEEIIQQSSKTD
On to B14, for which the SPOT signal as a fraction of Bim BH3's signal on the same receptor and array turned out to be 0.01 with Bcl-2, P10415; 0.02 with Bcl-w, Q92843; 0.03 in the experiment with Bcl-xL, Q07817; 0.03 with Bfl-1, Q16548; 0.02 with Mcl-1, Q07820.

B15: APBA1 (peptide)
chain: EVKQSMSSQSLDKAAEDMPEAEQDLE
With B15, the SPOT signal as a fraction of Bim BH3's signal on the same receptor and array with Bcl-2, P10415 worked out at 0.01; with Bcl-w, Q92843, 0.02; with Bcl-xL, Q07817, 0.02; in the experiment with Bfl-1, Q16548, 0.02; with Mcl-1, Q07820 it was 0.02.

B16: PLCD4 (peptide)
chain: TIRNGHDSELLRSLAEELPLEQGFTI
With B16, the SPOT signal as a fraction of Bim BH3's signal on the same receptor and array with Bcl-2, P10415 was found to be 0.01; with Bcl-w, Q92843, 0.01; in the experiment with Bcl-xL, Q07817, 0.02; with Bfl-1, Q16548, 0.02; with Mcl-1, Q07820 it was 0.02.

B17: DCAF8L1 (peptide)
chain: TIHFNQRGTRLASSGDDLRVIVWDWV
For the molecule B17, the SPOT signal as a fraction of Bim BH3's signal on the same receptor and array in the experiment with Bcl-2, P10415 was found to be 0.02; with Bcl-w, Q92843, 0.03; in the experiment with Bcl-xL, Q07817, 0.06; with Bfl-1, Q16548 it was 0.04; in the experiment with Mcl-1, Q07820, 0.04.

B18: RAPGEF2 (peptide)
chain: FEKLRMIAKEIRHVGRMASVNMDPAL
Take B18: the SPOT signal as a fraction of Bim BH3's signal on the same receptor and array with Bcl-2, P10415 stood at 0.1; in the experiment with Bcl-w, Q92843, 0.18; with Bcl-xL, Q07817, 0.19; with Bfl-1, Q16548, 0.38; with Mcl-1, Q07820, 0.13.

B19: PION (peptide)
chain: DISLSNSGFKLVNFGCDYHQYRDKFS
As for B19, the SPOT signal as a fraction of Bim BH3's signal on the same receptor and array with Bcl-2, P10415 worked out at 0.09; in the experiment with Bcl-w, Q92843 it was 0.2; in the experiment with Bcl-xL, Q07817, 0.39; with Bfl-1, Q16548 it was 0.38; with Mcl-1, Q07820, 0.14.
